Source: paper PMC4231325 (Scientific Reports, 2014)

Biological target: the molecule itself
Test: AUC

B1: SYCE3 (purified recombinant protein) (natural protein, Mus musculus, UniProt B5KM66 1-88, looked up)
chain: MADSDPGERSYDNMLKMLSDLNKDLEKLLEEMEKISVQATWMAYDMVVMRTNPTLAESMRRLEDAFLNCKEEMEKNWQELLTETKRKQ
For B1, the “stoichiometry N” value was 2.
